For 1 substance, enrichment results are on record in PMC12772958.

This experiment concerns the target PLEKHO2. The experiment can be described thus: BioID in situ proximity labelling, streptavidin pulldown, mass spectrometry (LFQ). The settings on record: U937 stable cell lines; biotin 24 h; n=3; read off a plot.

“BirA*–MYO1F tail (from UniProt O00160) K770A; R780A” displayed an enrichment of 5.2.
